One test has as its target T1, MMP-3 (UniProt P08254 100-477, limits assumed).
T1 construct: also called stromelysin-1
Briefly: cross-reactivity ELISA on coated MMP. The procedure:
(§1) Twenty-one of the reformatted MMP-26 antibodies were tested for MMP cross reactivity by ELISA analysis. MMP-3, MMP-7, MMP-9, and MMP-12 were coated onto Immulon 2 HB 96-well plates at a concentration of 1 μg/ml for 1 hour at 37° C. The plates were blocked with PBS-T containing 5% (w/v) nonfat dry milk for thirty minutes and subsequently washed with PBS-T. Each antibody was tested for reactivity to all of the above mentioned MMPs at a concentration of 2 μg/ml with an incubation time of 1 hour. Bound antibody was detected with an HRP-conjugated anti-human secondary antibody (Table 3, NT=not tested.).
(In general: ELISA stands for enzyme-linked immunosorbent assay.)

For another test, the target named is T2, MMP-9 (UniProt P14780 107-707, limits assumed).
T2 construct: also called gelatinase
Briefly: cross-reactivity ELISA on coated MMP. The procedure: as §1

Test [1] has as its target T3, MMP-26 catalytic domain, tagged with hexa-histidine (human, UniProt Q9NRE1 90-261).
T3 construct: the forward primer adds Met-Ala before it; also called MMP-26 target protein; Matrilysin-2; not shown: Also any N-terminal residues added by the forward primer (Met-Ala according to our card; the primers were not visible to me)
T3 sequence: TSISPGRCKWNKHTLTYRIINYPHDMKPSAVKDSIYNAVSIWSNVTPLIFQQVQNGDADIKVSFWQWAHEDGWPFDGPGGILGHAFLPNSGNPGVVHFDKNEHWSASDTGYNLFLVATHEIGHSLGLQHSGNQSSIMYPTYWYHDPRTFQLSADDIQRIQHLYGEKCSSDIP
Briefly: bead-based ELISA, MMP-26 on nickel beads, IgG4 culture supernatant. As for the experimental part: Reformatted and expressed full-length MMP-26 binding IgG4 antibodies were tested for specificity in a bead-based ELISA. Approximately 1.25 μg of MMP-26 protein was bound to nickel-coated magnetic beads (Novagen) which had been pre-blocked with phosphate buffered saline containing 5% (w/v) nonfat dry milk and 0.05% (v/v) Tween-20. The beads were washed in phosphate buffered saline containing 0.05% (v/v) Tween-20 (PBS-T) and 100 uls of unpurified cell culture supernatant containing transiently produced MMP-26-binding antibodies was added and incubated on a rotator for sixty minutes. The beads were washed with PBS-T and MMP-26-binding antibodies were detected with an HRP-conjugated anti-human secondary antibody. Data is expressed in fold over background where background consists of beads, blocking agent, and culture supernatant containing target antibody (Table 2; in this table, Results shown as fold over background (F>B) where background consists of beads, blocking agent, and culture supernatant).

T1 sequence (P08254 100-477 limits assumed): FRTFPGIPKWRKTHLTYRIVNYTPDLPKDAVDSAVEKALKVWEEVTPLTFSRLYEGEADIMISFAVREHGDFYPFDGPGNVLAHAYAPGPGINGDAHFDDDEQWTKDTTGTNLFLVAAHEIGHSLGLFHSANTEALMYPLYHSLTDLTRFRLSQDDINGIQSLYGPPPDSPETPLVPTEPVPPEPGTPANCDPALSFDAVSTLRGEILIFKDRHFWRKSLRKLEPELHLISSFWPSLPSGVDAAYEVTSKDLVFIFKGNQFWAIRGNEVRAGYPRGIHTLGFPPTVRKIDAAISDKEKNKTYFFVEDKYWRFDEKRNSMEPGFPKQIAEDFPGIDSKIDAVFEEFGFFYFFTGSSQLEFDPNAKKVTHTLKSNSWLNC
T2 sequence (P14780 107-707 limits assumed): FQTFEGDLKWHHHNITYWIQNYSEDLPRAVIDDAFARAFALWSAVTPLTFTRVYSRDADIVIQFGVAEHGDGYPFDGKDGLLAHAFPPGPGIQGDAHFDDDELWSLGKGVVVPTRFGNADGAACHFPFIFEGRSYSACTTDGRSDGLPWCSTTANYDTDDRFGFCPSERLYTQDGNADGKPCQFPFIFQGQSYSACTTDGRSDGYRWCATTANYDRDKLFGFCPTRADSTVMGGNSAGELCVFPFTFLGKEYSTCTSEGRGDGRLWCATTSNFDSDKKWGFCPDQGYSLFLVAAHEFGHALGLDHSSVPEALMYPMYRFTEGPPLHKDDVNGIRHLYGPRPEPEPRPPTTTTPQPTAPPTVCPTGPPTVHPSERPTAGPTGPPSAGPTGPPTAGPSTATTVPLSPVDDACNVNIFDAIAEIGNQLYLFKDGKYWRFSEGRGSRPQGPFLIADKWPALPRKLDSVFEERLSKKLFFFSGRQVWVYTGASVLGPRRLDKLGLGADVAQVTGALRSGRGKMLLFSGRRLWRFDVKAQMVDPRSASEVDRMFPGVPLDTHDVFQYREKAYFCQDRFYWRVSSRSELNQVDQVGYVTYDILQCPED

B1: A03 (antibody, human IgG4, V domains shown)
VH: EVQLLESGGGLVQPGGSLRLSCAASGFTFSIYSMDWVRQAPGKGLEWVSSIYSSGGATRYADSVKGRFTISRDNSKNTLYLQMNSLRAEDTAVYYCARCSWLQLVPMHPWGQGTLVTVSS
VL: QSALTQPPSASGTPGQRVTISCSGGSSNIGSNFVYWYRQLPGTAPKLLIYRNYQRPSGVPDRFSGSKSGTSASLAISGLLSEDEADYYCAAWDDNVGGVFGSGTKVTVLG
notes: whole human IgG4
As to B1, the binding result in the test with MMP-3 and with MMP-9 was “no binding (tested: 2 µg/ml)” throughout. The “F > B (fold over background)” value in test [1] came to 3.54 fold over background.

B2: A01 (antibody, human IgG4, V domains shown)
VH: EVQLLESGGGLVQPGGSLRLSCAASGFTFSAYNMFWVRQAPGKGLEWVSGIGSSGGIAPYADSVKGRFTISRDNSKNTLYLQMNSLRAEDTAVYYCARAAYEVENWFDPWGQGTLVTVSS
VL: DIQMTQSPGTLSLSPGERATLSCRASQIVRSTYLAWYQQKPGQAPRLLIYGTSSRATGVPDRFSGSGSGTDFTLTISGLEPEDFALYYCQRYGDSPPITFGQGTRLEITR
notes: whole human IgG4
For B2, the binding result with MMP-3 and in the test with MMP-9 was “no binding (tested: 2 µg/ml)” throughout. Also, the “F > B (fold over background)” value in test [1] turned out to be 3.3 fold over background.

B3: B11 (antibody, human IgG4, V domains shown)
VH: EVQLLESGGGLVQPGGSLRLSCAASGFTFSPYFMFWVRQAPGKGLEWVSSIGSSGGDTSYADSVKGRFTISRDNSZNTLYLQMNSLRAEDTAVYYCARGLYRWGQGTLVTVSS
VL: QSELTQPPSVSLAPGQTARITCGGNNIGTKSVHWYQQKPGQAPVLVVYDDSDRPSGIPERFSGSNSGNTATLTISRVEAGDEADYYCQVWDSGSDHQVFGGGTKLTVLG
notes: whole human IgG4; the VHC entry has one unread residue (printed z, K75z)
Take B3: the binding result with MMP-3 and with MMP-9 was “no binding (tested: 2 µg/ml)” each time. For the same molecule, in test [1], the “F > B (fold over background)” value came out at 3.13 fold over background.

B4: C10 (antibody, human IgG4, V domains shown)
VH: EVQLLESGGGLVQPGGSLRLSCAASGFTFSVYVMMWVRQAPGKGLEWVSGIVPSGGKTHYADSVKGRFTISRDNSKNTLYLQMNSLRAEDTAVYYCARPDYGGNSRPLEYWGQGTLVTVSS
VL: QSELTQPASVSGSPGQSITISCTGTSSDVGSYNLVSWYQQHPGKAPKLMIYEGSKRPSGVSNRFSGSKSGNTASLTISGLQAEDEADYYCCSYAGSSTYVFGTGTKVTVLG
notes: whole human IgG4
Turning to B4, the binding result with MMP-3 and with MMP-9 was “no binding (tested: 2 µg/ml)” in each case. Further, the “F > B (fold over background)” value in test [1] came out at 3.41 fold over background.

B5: C09 (antibody, human IgG4, V domains shown)
VH: EVQLLESGGGLVQPGGSLRLSCAASGFTFSQYFMNWVRQAPGKGLEWVSYISGGRTPYADSVKGRFTISRDNSKNTLYLQMNSLRAEDTAVYYCAILLGPSSSNHPFLGPWGQGTLVTVSS
VL: DIQMTQSPGTLSLSPGERATLSCRASQSVSSTYLAWYQQKPGQAPRLLISGASSRATGIPDRFSGSGSGTDFTLTISRLEPEDFAVYYCQQYGSSPYTFGQGTKLEIKR
notes: whole human IgG4
For B5, the binding result with MMP-3 and with MMP-9 was “no binding (tested: 2 µg/ml)” throughout. For the same molecule, in test [1], the “F > B (fold over background)” value amounted to 3.4 fold over background.

B6: B12 (antibody, human IgG4, V domains shown)
VH: EVQLLESGGGLVQPGGSLRLSCAASGFTFSLYVMYWVRQAPGKGLEWVSYISSSGGITHYADSVKGRFTISRDNSKNTLYLQMNSLRAEDTAVYYCARGSIVVVPAAIRSNNWFDPWGQGTLVTVSS
VL: QSALTQPPSVSVAPGQTARISCGGDNIDTKNVQWYQQRPGQAPVLVVYDNSDRPSAIPERFSGSNSGTTATLTISRVEAGDEADYYCQVFDGRSDHPVFGGGTKLTV
notes: whole human IgG4
Turning to B6, the binding result with MMP-3 and in the test with MMP-9 was “no binding (tested: 2 µg/ml)” in each case. The “F > B (fold over background)” value in test [1] worked out at 2.83 fold over background.

B7: C05 (antibody, human IgG4, V domains shown)
VH: EVQLLESGGGLVQPGGSLRLSCAASGFTFSSYQMDWVRQAPGKGLEWVSRIVPSGGDTTYADSVKGRFTISRDNSKNTLYLQMNSLRAEDTAVYYCARHVYYDSSDYFPNPFDYWGQGTLVTVSS
VL: QSELTQPPSVSGTPGQRVTISCSGSSSNIGSEYVYWFQQLPGTAPRLLIYRNDQRPSGVPDRFSGSKSGTSASLAISGLRSEDETDYYCTTWDDSLSGPVFGGGTKLTVLG
notes: whole human IgG4
Take B7: the binding result with MMP-3 and with MMP-9 was “no binding (tested: 2 µg/ml)” throughout. Moreover, in test [1], the “F > B (fold over background)” value amounted to 3.6 fold over background.

B8: C04 (antibody, human IgG4, V domains shown)
VH: EVQLLESGGGLVQPGGSLRLSCAASGFTFSMYFMVWVRQAPGKGLEWVSWIGSSGGETPYADSVKGRFTISRDNSKNTLYLQMNSLRAEDTAVYYCARGYSSGWYVMGDYWGQGTLVTVSS
VL: QSALTQPPSASGTPGQRVTISCSGTSSNIGSHYVFWYQQLPGTAPKLLIHRNDERPSGVPDRFSGSKSGTSASLAISGLQSEDEADYYCATWDDNLNGPVFGGGTKLT
notes: whole human IgG4
Regarding B8, the binding result in the test with MMP-3 and in the test with MMP-9 was “no binding (tested: 2 µg/ml)” throughout. The “F > B (fold over background)” value in test [1] is 2.9 fold over background.

B9: C08 (antibody, human IgG4, V domains shown)
VH: EVQLLESGGGLVQPGGSLRLSCAASGFTFSYYEMMWVRQAPGKGLEWVSSISPSGGPTMYADSVKGRFTISRDNSKNTLYLQMNSLRAEDTGVYYCARKMGRVGYCSSTSCYRDDYYGMDVWGQGTTVTVSS
VL: DIQMTQSPPSLSALVGDRVTITCRASQSISRYVNWYQQKPGKAPKVLIYAASIVENGVPSRFSGSGSGTDFSLTISSLQPEDFATYYCQQTYSTPLTFGGGTKLAIKR
notes: whole human IgG4
Take B9: the binding result with MMP-3 and in the test with MMP-9 was “no binding (tested: 2 µg/ml)” in each case. The “F > B (fold over background)” value in test [1] was found to be 3.4 fold over background.

B10: C07 (antibody, human IgG4, V domains shown)
VH: EVQLLESGGGLVQPGGSLRLSCAASGFTFSYYVMMWVRQAPGKGLEWVSVIRPSGGITTYADSVKGRFTISRDNSKNTLYLQTNSLRAEDTAVYYCAKIDYGGNSFYFDYWGQGTLVTVSS
VL: DIQMTQSPSSLSASVGDRVTITCRASQSISNYLNWYQQRPGKAPKLLIYAASSLERGVPSRFSGSGSGTDFTLTISSLQSEDFATYYCQQSYSPPPLTFGGGTKLEIKR
notes: whole human IgG4
As for B10, the binding result in the test with MMP-3 and with MMP-9 was “no binding (tested: 2 µg/ml)” each time. Also, the “F > B (fold over background)” value in test [1] worked out at 3.12 fold over background.

B11: C03 (antibody, human IgG4, V domains shown)
VH: EVQLLESGGGLVQPGGSLRLSCAASGFTFSLYMMKWVRQAPGKGLEWVSVISSSGGYTQYADSVKGRFTISRDNSKNTLYLQMNNLRAEDTAVYYCARGWDVWGKGTTVTVSS
VL: QSALTQPPSASGTPGQRVTISCSGSNSNIGGNIVIWLQQLPGTAPKLMIYDVSDRPSGVPDRFSGSKSGTSASLAISGLQSEDEADYYCAAWDDSLNGWVFGGGTKLTVLS
notes: whole human IgG4
Consider B11, for which the binding result with MMP-3 and with MMP-9 was “no binding (tested: 2 µg/ml)” throughout. Moreover, the “F > B (fold over background)” value in test [1] came to 4.1 fold over background.

B12: C06 (antibody, human IgG4, V domains shown)
VH: EVQLLESGGGLVQPGGSLRLSCAASGFTFSFYFMFWVRQAPGKGLEWVSYIGPSGGPTNYADSVKGRFTISRDNSKNTLYLQMNSLRAEDTAVYYCARHYPREYQLPGSFDPWGQGTLVTVSS
VL: DIQMTQSPSSLSASVGDRVTITCRASQGISNYLAWYQQKPGKVPKLLIYPASTLQSGVPSRFSGSGSGTDFTLTISSLQPEDFATYYCQQADSFPPTFGGGTTVEIRR
notes: whole human IgG4
B12: the binding result in the test with MMP-3 and with MMP-9 was “no binding (tested: 2 µg/ml)” each time. The “F > B (fold over background)” value in test [1] was determined as 2.2 fold over background.

B13: C01 (antibody, human IgG4, V domains shown)
VH: EVQLLESGGGLVQPGGSLRLSCAASGFTFSNYGMSWVRQAPGKGLEWVSVIGPSGGITMYADSVKGRFTISRDNSKNTLYLQMNSLRAEDTAVYYCATGSSSGWYPNFDYWGQGTLVTVSS
VL: DIQMTQSPSTLSASVGDRVTITCRASQSIGNWLAWYQQKPGEAPHLLIYQASSLEGGVPSRFSGSGSGTKFTLNISSLQPDDFATYYCQQYNSYSYTFGQGTKLDIKR
notes: whole human IgG4
Consider B13, for which the binding result with MMP-3 and with MMP-9 was “no binding (tested: 2 µg/ml)” in each case. In addition, the “F > B (fold over background)” value in test [1] amounted to 2.8 fold over background.

B14: C11 (antibody, human IgG4, V domains shown)
VH: EVQLLESGGGLVQPGGSLRLSCAASGFTFSEYPMWWVRQAPGKGLEWVSWIYPSGGNTDYADSVKGRFTISRDNSKNTLYLQMNSLRAEDTAVYYCAIPYCSSSSCPLHWGQGTLVTVSS
VL: QSELTQPPSASGSPGQSVTISCTGTSSDVGGYNYVSWYQQHPDKAPKLLIYEVTQRPSGVPDRFSGSRSGNTASLTVSGLQAEDEADYYCSSYAGRNNLYVFGPGTKVTVLG
notes: whole human IgG4
On to B14, for which the binding result in the test with MMP-3 and in the test with MMP-9 was “no binding (tested: 2 µg/ml)” each time. For the same molecule, the “F > B (fold over background)” value in test [1] was 2.6 fold over background.

The values above are taken from US7514534 (DYAX, dated 2009).
